These are literature values, as cited in publication PMC12990809.

What all share (assay): pulldown
Holding throughout (settings): 20 nM protein, 1.5 uM RNA pool; 20 mM HEPES pH 7.8, 70 mM KCl, 10 mM NaCl, 10% glycerol, 2 mM DTT, 0.1 ug/uL BSA; 30 min, 4 C (protocol of this paper; not …); cited from earlier work

The target of series [1] is eIF-2alpha (Drosophila melanogaster) (UniProt P41374).
The target in series [2] is T1, Tb09.211.0930 (Trypanosoma brucei) (UniProt Q38E63).
T1 sequence: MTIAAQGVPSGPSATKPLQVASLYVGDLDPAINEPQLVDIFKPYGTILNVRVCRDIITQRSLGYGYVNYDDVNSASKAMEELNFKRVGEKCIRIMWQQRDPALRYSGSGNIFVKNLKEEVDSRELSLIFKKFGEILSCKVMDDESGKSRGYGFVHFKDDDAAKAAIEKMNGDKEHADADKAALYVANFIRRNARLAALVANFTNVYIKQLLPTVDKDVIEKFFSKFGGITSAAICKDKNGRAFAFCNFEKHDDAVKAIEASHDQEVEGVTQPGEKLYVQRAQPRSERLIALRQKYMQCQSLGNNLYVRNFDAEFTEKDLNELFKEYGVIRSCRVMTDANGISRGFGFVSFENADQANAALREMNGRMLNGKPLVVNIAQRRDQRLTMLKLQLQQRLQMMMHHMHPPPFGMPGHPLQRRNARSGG

Series [3] deals with T2, Tb11.03.0170 (Trypanosoma brucei) (UniProt Q387F5).
T2 sequence: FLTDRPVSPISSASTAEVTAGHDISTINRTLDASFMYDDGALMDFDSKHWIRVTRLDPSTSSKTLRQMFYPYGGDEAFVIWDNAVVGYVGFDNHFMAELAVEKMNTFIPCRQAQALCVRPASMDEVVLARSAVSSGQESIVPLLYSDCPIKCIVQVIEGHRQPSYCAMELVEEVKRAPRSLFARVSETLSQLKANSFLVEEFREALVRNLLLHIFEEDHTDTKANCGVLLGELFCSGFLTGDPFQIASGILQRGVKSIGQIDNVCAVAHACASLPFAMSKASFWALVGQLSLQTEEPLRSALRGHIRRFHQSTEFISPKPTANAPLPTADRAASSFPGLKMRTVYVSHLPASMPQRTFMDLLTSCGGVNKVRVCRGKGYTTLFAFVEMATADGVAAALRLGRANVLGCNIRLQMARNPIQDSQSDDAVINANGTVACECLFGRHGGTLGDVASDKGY

Series [4] deals with PTBP1 (Homo sapiens) (UniProt P26599).
PTBP1 (Homo sapiens), sequence (P26599 other isoform, or with tags, fused parts or gaps): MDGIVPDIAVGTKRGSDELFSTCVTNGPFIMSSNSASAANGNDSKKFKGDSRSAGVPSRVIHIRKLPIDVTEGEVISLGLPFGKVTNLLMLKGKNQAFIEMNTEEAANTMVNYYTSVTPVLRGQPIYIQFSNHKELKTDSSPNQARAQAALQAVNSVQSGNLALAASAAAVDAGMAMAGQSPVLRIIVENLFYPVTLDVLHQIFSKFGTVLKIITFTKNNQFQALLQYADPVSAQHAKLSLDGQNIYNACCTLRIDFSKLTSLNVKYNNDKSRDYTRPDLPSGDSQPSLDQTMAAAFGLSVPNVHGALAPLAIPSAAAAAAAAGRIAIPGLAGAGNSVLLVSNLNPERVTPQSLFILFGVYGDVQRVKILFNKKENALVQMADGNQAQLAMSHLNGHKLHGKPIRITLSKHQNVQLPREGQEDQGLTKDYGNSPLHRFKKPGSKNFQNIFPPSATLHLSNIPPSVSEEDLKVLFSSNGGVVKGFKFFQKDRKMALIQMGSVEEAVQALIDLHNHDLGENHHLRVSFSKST
In series [5] the target is SRSF10 (Homo sapiens) (UniProt O75494).
SRSF10 (Homo sapiens), sequence (O75494 1-92): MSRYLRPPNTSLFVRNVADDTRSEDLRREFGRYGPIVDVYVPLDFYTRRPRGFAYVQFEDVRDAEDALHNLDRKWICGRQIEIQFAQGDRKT
The target of series [6] is T3, LmjF.35.4130 (Leishmania major) (UniProt E9AFP0).
T3 sequence: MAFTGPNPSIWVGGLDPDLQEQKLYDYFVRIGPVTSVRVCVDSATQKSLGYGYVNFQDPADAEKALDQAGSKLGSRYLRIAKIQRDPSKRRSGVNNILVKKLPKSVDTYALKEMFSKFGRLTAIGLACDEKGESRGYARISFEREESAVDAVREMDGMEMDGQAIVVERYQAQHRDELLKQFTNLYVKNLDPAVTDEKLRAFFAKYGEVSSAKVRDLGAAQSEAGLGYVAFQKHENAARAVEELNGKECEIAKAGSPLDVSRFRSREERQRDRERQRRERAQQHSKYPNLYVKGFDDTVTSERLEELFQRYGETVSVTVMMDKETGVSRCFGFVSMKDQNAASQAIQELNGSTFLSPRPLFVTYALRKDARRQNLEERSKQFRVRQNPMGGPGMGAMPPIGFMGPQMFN

Series [7] deals with T4, TVAG_267990 (Trichomonas vaginalis) (UniProt A2DLE8).
T4 sequence: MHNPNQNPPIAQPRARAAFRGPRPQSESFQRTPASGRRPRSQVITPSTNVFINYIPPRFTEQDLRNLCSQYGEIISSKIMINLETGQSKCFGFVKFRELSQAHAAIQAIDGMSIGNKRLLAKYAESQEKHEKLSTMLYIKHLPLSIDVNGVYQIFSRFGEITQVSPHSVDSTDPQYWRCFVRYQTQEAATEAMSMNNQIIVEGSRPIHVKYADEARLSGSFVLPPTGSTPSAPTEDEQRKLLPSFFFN

Series [8] has as its target aret (Drosophila melanogaster) (UniProt C8VV87).
In series [9] the target is e_gw1.09.00.326.1 (Ostreococcus tauri) (UniProt A0A090N3Z5).
e_gw1.09.00.326.1 (Ostreococcus tauri), sequence (A0A090N3Z5 entry or part of it): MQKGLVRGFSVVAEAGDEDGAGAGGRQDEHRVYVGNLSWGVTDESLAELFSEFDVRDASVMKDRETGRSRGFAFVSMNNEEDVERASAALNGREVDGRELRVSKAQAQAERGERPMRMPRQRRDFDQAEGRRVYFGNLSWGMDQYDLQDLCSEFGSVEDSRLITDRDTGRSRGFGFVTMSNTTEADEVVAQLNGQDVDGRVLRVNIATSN
For series [10], the target named is T5, TVAG_002940 (Trichomonas vaginalis) (UniProt A2EZR7).
T5 sequence: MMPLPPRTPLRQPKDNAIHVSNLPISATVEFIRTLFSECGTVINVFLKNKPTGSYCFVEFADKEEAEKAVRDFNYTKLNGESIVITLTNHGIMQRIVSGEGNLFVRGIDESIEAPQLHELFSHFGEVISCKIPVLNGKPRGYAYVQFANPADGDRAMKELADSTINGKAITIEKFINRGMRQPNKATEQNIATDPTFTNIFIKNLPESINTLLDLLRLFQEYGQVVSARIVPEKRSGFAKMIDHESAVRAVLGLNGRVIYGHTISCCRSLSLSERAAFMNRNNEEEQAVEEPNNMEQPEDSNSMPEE

Series [11] concerns the target T6, estExt_fgeneshHS_pg.C_730016 (Naegleria gruberi) (UniProt D2W041).
T6 sequence: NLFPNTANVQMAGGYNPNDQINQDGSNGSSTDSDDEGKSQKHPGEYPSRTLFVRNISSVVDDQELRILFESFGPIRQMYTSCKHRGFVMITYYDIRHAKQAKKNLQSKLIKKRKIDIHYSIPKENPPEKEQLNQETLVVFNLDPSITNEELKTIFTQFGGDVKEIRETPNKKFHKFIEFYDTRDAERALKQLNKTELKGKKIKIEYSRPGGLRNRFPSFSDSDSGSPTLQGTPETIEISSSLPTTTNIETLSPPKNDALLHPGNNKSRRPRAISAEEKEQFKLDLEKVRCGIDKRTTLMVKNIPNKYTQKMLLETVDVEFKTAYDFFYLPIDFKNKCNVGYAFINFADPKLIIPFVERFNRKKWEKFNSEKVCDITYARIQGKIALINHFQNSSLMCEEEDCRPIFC

Series [12] addresses T7, tiar-1 (Caenorhabditis elegans) (UniProt Q95QV8).
T7 sequence: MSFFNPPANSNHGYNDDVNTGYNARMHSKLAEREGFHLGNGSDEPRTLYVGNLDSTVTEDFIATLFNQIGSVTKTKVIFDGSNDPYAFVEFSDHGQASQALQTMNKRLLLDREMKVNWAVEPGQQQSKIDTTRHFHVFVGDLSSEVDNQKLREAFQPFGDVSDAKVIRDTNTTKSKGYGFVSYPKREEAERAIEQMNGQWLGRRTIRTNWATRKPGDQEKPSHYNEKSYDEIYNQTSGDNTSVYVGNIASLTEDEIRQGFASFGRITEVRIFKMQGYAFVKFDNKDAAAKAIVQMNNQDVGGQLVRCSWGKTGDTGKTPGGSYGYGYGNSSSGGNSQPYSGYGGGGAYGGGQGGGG

In series [13] the target is T8, Tb11.01.7680 (Trypanosoma brucei) (UniProt Q381I4).
T8 sequence: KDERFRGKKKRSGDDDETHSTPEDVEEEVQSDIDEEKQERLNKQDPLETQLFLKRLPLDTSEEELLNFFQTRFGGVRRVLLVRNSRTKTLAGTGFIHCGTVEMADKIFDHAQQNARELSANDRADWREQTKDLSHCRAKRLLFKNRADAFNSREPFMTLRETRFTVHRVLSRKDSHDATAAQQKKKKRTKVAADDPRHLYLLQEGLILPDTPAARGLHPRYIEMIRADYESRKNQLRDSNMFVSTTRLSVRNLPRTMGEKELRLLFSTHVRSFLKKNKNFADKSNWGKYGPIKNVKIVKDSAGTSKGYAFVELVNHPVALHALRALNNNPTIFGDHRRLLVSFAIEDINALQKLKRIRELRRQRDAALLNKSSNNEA

Series [14] concerns the target T9, LmjF.35.2550 (Leishmania major) (UniProt E9AF78).
T9 sequence: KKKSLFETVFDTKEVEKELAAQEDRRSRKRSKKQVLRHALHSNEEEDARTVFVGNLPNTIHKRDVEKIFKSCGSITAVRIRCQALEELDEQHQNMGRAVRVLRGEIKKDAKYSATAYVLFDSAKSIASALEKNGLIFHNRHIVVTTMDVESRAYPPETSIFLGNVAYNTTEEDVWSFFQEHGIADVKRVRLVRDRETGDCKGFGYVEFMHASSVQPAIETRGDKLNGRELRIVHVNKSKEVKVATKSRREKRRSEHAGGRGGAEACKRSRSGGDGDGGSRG

For series [15], the target named is T10, NEMVEDRAFT_v1g104011 (Nematostella vectensis) (UniProt A7S488).
T10 sequence: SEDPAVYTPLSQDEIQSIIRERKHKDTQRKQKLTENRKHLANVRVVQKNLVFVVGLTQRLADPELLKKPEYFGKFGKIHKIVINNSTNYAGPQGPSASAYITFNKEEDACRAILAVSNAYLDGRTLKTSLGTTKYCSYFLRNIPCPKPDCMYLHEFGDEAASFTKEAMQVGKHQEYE

The target of series [16] is T11, Rb97D (Drosophila melanogaster) (UniProt Q02926).
T11 sequence: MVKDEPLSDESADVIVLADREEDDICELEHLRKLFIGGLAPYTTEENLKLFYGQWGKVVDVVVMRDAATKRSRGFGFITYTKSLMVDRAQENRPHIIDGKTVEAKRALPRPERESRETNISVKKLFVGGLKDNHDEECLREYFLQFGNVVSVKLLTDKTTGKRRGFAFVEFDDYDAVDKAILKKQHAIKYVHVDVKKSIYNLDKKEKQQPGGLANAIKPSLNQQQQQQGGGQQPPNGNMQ

Series [17] addresses T12, e_gw1.03.00.367.1 (Ostreococcus tauri) (UniProt Q01DB3).
T12 sequence: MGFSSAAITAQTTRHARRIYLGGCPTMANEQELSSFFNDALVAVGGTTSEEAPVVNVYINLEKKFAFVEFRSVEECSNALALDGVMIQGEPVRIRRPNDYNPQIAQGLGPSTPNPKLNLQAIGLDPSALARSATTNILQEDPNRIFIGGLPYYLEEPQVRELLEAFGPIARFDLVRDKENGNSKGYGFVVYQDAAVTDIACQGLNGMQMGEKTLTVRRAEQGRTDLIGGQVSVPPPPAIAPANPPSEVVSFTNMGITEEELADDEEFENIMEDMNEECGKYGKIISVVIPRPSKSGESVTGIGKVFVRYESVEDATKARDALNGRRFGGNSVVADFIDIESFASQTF

The target of series [18] is T13, TVAG_129710 (Trichomonas vaginalis) (UniProt A2DI67).
T13 sequence: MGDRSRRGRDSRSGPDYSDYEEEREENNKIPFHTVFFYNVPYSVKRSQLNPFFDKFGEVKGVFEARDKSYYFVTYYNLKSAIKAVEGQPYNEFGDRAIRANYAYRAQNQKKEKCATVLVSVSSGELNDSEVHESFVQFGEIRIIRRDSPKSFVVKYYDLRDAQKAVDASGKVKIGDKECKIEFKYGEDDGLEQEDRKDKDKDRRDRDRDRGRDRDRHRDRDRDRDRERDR

aret (Drosophila melanogaster), sequence (C8VV87 entry or part of it): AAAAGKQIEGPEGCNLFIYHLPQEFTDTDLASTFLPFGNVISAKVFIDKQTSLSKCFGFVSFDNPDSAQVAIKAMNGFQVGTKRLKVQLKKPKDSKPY
eIF-2alpha (Drosophila melanogaster), sequence (P41374 whole entry): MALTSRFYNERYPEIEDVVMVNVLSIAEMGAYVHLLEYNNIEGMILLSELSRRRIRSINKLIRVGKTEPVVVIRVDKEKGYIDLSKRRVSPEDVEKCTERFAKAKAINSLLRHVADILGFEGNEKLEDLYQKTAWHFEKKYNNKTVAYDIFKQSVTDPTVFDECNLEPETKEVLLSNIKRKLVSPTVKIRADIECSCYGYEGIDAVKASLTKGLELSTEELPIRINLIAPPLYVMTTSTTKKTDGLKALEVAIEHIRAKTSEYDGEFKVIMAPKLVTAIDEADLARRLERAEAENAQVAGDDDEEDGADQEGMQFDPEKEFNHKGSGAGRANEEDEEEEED

With CUCUGU [RNAcompete motif RNCMPT00273], in series [1], the binding signal (z-score (mean of top ten 7-mers)) was 6.48.
Regarding AGAAANA [RNAcompete motif RNCMPT00253], in series [2], the binding signal (z-score (mean of top ten 7-mers)) was 9.59.
Consider UUCACAC [RNAcompete motif RNCMPT00251], for which the binding signal (z-score (mean of top ten 7-mers)) in series [3] was 9.19.
On to UUUUCU [RNAcompete motif RNCMPT00268], for which the binding signal (z-score (mean of top ten 7-mers)) in [4] is 6.14.
Regarding AGAGAAA [RNAcompete motif RNCMPT00090], in [5], the binding signal (z-score (mean of top ten 7-mers)) was 14.3.
Take AAAACAAA [RNAcompete motif RNCMPT00255]: the binding signal (z-score (mean of top ten 7-mers)) in series [6] was 8.22.
For ACCAUG [RNAcompete motif RNCMPT00259], the binding signal (z-score (mean of top ten 7-mers)) in series [7] was 19.9.
With “UNUUUGUGU [RNAcompete motif RNCMPT00270]”, the binding signal (z-score (mean of top ten 7-mers)) in series [8] is 14.8.
Turning to AGAACA [RNAcompete motif RNCMPT00263], the binding signal (z-score (mean of top ten 7-mers)) in [9] was 8.19.
Take AGAAAA [RNAcompete motif RNCMPT00257]: the binding signal (z-score (mean of top ten 7-mers)) in series [10] is 12.5.
Turning to AAUUUUG [RNAcompete motif RNCMPT00261], in series [11], the binding signal (z-score (mean of top ten 7-mers)) is 19.4.
As for UUUUUU [RNAcompete motif RNCMPT00256], in series [12], the binding signal (z-score (mean of top ten 7-mers)) was 11.2.
Consider AGUAGAU [RNAcompete motif RNCMPT00252], for which, in [13], the binding signal (z-score (mean of top ten 7-mers)) is 7.34.
As to GAACG [RNAcompete motif RNCMPT00254], the binding signal (z-score (mean of top ten 7-mers)) in [14] was 15.2.
For the substance AGACACA [RNAcompete motif RNCMPT00278], the binding signal (z-score (mean of top ten 7-mers)) in [15] was 12.7.
On to UAGGUA [RNAcompete motif RNCMPT00272], for which the binding signal (z-score (mean of top ten 7-mers)) in [16] was 8.77.
As to UUUUUU [RNAcompete motif RNCMPT00262], the binding signal (z-score (mean of top ten 7-mers)) in [17] was 11.3.
As to UGUUUG [RNAcompete motif RNCMPT00258], in series [18], the binding signal (z-score (mean of top ten 7-mers)) was 7.64.
